What was measured:
[1] = Liposome encapsulation, size and stability (BCA protein assay after liposome disruption); format: physicochemical
Protocol: Endotoxin-free VN containing liposomes (referred to as LVN) and endotoxin-free native CN containing liposomes (referred to as LCN) were prepared utilizing a probe sonication previously described (Fujii, Chang et al. 1997). Briefly, the lipids (disteroylphosphatidylcholine, cholesterol and polyethylene glycol derivatized lipid) were dissolved in a chloroform/methanol solution. Thin lipid films were created by pipetting aliquots of the lipid solution into round bottom glass tubes followed by solvent evaporation at 65° C. under a stream of nitrogen gas. The films were placed under vacuum for at least 24 hours to remove residual organic solvent. Liposomes formed following hydration of the lipid films with native CN or VN dissolved in 10 mM sodium phosphate, 9% sucrose, pH 7.2. The mixture was incubated at 65° C. for 5-10 minutes. Hydration was followed by probe sonication until the suspension was translucent. […]
The concentration of liposome entrapped CN/VN was determined by disruption of the liposomes with chloroform/methanol/water (10:40:50) followed by centrifugation at 14,000×g. The supernatant was analyzed for CN/VN concentration using BCA protein assay (Smith, Krohn et al. 1985). The encapsulation efficiency was assessed by BCA protein determination following disruption of the LrCN with a solution of H2O:methanol:chloroform.

[2] = tested on: MDA-MB-435 breast carcinoma cells; assay: Inhibition of MDA-MB-435 cell adhesion to immobilized fibronectin (MTS readout); format: cell-based, human; conditions: 0-1000 nM, 30 min pretreatment, adhesion 1 hr at 25° C.
Protocol: (§1) Pretreated cells were allowed to adhere for 1 hr at 25° C., and after non-adherent cells were washed away, the number of adherent cells for each condition was estimated using the MTS cell viability assay.
(§2) Pretreated cells were allowed to adhere for 1 hr at 25° C., and after non-adherent cells were washed away, the number of adherent cells for each condition was estimated using the MTS cell viability assay. In the cell invasion assay, an invasion chamber consisting of cell culture inserts that fit into 24-well tissue culture plate has been utilized. The inserts contain an 8 μm-pore size polycarbonate membrane, over which a thin layer of ECMatrix™ was applied. The ECMatrix™ serves as an in vitro reconstituted basement membrane and is a solid gel of ECM proteins prepared from the Engelbreth Holm-Swarm (EHS) mouse tumor. The ECM layer occludes the membranes pores, blocking non-invasive cells to migrate through. […] At the 8 hr time point the cells that invaded through the pores into the lower chamber were measured. The numbers of invaded cells for each condition were approximated by quantitating the retrieved labeled DNA using a fluorescent plate reader. The results were calculated in % invasion, where the untreated control was considered as 100% invasion.

[3] = tested on: MDA-MB-435 breast carcinoma cells; assay: Inhibition of MDA-MB-435 cell adhesion to immobilized vitronectin (MTS readout); format: cell-based, human; conditions: 0-1000 nM, 30 min pretreatment, adhesion 1 hr at 25° C.
Protocol: as §1, §2

[4] = target: T1, GPIIb/IIIa (integrin αIIbβ3) (Homo sapiens, UniProt P05106+P08514); assay: ADP-induced platelet aggregation inhibition assay in platelet-rich plasma; format: cell-based; conditions: inhibitor added one minute prior to ADP (1 μM)
T1 construct: endogenous in cells; host or cells: platelets in fresh platelet-rich plasma
Protocol: Different concentrations of native CN, Vicrostatin (VN), or rCN conformer were incubated with platelet-rich plasma. Addition of ADP induces platelet aggregation; VN, rCN conformer, or native CN were added one minute prior to ADP.
The recombinant CN products were evaluated for biological activity by a platelet aggregation inhibition assay. According to this assay, CN binding to GPIIb/IIIa (integrin αIIbβ3) in an RGD dependent manner inhibits ADP induced platelet aggregation (Trikha, Rote et al. 1994). In this assay, potential inhibitors are added to fresh platelet-rich plasma, and after minute, ADP is added to a final concentration of 1 μM to induce aggregation. If inhibitor is present, functional aggregation will not occur. The IC50 is defined as the concentration at which 50% of the activity is inhibited, and is used as a measure of the potency of an inhibitor.

B1: contortrostatin (protein)
chain: DAPANPCCDAATCKLTTGSQCADGLCCDQCKFMKEGTVCRRARGDDLDDYCNGISAGCPRNPFH
[1]
  protein in the encapsulation solution entrapped within the liposomes: 80%
[2]
  inhibition of MDA-MB-435 cell adhesion to immobilized fibronectin (Fn): inhibited adhesion
[3]
  inhibition of MDA-MB-435 cell adhesion to immobilized vitronectin (Vn): inhibited adhesion
[4]
  IC50: ~60 nM

Reference: patent US8685668B2, “Method of expressing proteins with disulfide bridges” (University of Southern California, priority 2005, dated 2014)
